Values quoted from earlier work, collected in publication PMC4815360.

Tests used:
[1] = target: Endothelin receptor ETA (Rattus norvegicus) (UniProt P26684); test: radioligand
[2] = target: Endothelin receptor ETA (Homo sapiens) (UniProt P25101); test: radioligand
[3] = target: Endothelin receptor ETA (Rattus norvegicus) (UniProt P26684); test: radioligand binding
[4] = target: Endothelin receptor ETA (Homo sapiens) (UniProt P25101); test: saturation radioligand binding

UniProt P26684, sequence (P26684 21-426): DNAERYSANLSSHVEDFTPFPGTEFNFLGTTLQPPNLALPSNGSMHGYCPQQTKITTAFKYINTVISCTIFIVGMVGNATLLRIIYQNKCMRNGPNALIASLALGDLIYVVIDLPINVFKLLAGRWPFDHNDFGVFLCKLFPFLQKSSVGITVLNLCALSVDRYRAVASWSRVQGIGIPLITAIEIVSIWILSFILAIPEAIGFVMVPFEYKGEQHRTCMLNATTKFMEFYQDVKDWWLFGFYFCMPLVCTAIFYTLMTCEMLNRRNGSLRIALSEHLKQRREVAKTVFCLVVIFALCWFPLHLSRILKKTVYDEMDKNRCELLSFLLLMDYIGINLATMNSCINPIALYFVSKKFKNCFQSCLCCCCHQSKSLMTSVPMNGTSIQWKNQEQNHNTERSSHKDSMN
UniProt P25101, sequence (P25101 21-427): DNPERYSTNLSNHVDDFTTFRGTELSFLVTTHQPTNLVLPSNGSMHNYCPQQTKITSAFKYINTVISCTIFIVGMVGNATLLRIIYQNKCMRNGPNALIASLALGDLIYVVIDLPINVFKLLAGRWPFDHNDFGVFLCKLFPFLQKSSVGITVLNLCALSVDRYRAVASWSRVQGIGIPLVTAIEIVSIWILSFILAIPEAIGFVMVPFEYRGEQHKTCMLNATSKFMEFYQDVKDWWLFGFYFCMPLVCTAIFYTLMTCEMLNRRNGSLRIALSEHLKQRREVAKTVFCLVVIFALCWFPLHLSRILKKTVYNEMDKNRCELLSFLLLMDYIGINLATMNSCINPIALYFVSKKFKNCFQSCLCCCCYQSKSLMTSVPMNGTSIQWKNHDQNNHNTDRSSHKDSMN

Substance | Kd [1] [nM] | Kd [2] [nM] | Kd [3] [nM] | Kd [4] [nM]
Endothelin-1 (from UniProt P05305) | 0.1 | 0.4 | – | –
Endothelin-2 (from UniProt P20800) | – | – | 0.1 | 0.7
